{
  "source": "patent US20220331457A1",
  "key": {"[1]": {"target": "human carbonic anhydrase IX (CAIX) (human) (UniProt Q16790)", "experiment": "competition ELISA on coated CAIX; competitor: biotinylated chimeric Girentuximab IgG1"}, "[2]": {"target": "human carbonic anhydrase IX (CAIX) (human) (UniProt Q16790)", "experiment": "SPR (Biacore T200), multicycle kinetics; purified antibody captured on Protein G chip, CAIX as analyte"}},
  "data": [
    {"substance": "Chimeric Girentuximab (VH0/Vκ0) IgG4 (S228P, L235E) (antibody)", "values": [
      {"measurement": "relative IC50 (IC50 of the variant divided by IC50 of the Girentuximab chimeric IgG1 antibody on the same plate)", "setting": "[1]", "result": "< 2", "unit": "fold"},
      {"measurement": "relative KD (KD of the variant divided by KD of the chimeric antibody on the same chip)", "setting": "[2]", "result": "< 2", "unit": "fold"}
    ]}
  ]
}
